Laboratory results published in paper PMC3771576.

Biological target: rYbx1 (wild type) (Danio rerio (zebrafish)) (UniProt B5DE31)
Assay: EMSA
Conditions: RNA EMSA; binding buffer and temperature not given; extract lysis buffer 20 mM Tris pH 8.0, 100 mM NaCl, 0.1 mM EDTA, 1 mM 6-aminohexanoic acid, 1 mM PMSF, 25% …

Sequence of rYbx1 (wild type) (Danio rerio (zebrafish)) (B5DE31 whole entry): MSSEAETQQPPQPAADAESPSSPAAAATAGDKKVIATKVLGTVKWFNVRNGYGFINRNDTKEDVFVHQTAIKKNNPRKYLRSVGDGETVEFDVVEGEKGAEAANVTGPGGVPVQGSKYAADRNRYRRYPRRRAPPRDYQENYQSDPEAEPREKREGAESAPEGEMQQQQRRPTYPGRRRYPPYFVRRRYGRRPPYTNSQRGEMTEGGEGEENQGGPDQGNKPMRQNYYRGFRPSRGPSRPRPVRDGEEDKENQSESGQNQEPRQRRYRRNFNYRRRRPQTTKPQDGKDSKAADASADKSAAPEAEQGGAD

Sequence	binding
GGGAGAUAUUUUAUGAGAUUUUAAGAUAUAAUUUUCUGUAUAUUUCUGCAAGCAAAAUGUAAAUUGACGCUCUAUAUAAGACACAUGGGCUUUCUCGUUCCCAC [wnt8a.2 probe]	no binding
GGGAGAGAUGCAGAGAAUGUGCAUGUAGAUGCUGUUAAAGUAACUUUUUAUAAUUCAUUGUAAUGUAAUAAUAAAAACUUUUACUAUGGGAUUCCUUUUUUUUC [vg1.3 probe]	no binding
GGGAGACCGGCCGCACAACCAUUCACGCAAAAGACAACACACGCGUCGUGGAUGAAGUAAUCCUCUUUGCAAAUAUGUAAAGCUGUAUAUUUCUAAUGUAAAUA [wnt8a.1 probe]	no binding
GGGAGAUGUCAAUUGAAUUCAUUGAAGUUCUAUUUUGAAGUUCAUUAUUUGCACUUUUUCGUUCUCGACAUAAGAUCACAGAUUUUGUUGCUCUCAAAAAAUGU [wnt8a.3 probe]	no binding
GGGAGAUUGUAUUUUUUCAUGCACAGAUCACUUGACAGUAUGCAGUGUUUCACGAUGAGGUUUAAAUGUUGUGUUUUAUGGAACUUAUUUAAGGCAAAUAUUUU [wnt8a.4 probe]	no binding
GGGAGAAGUGGAUGCAGAUGAACAUGACUUAAUUUUUAAAUGCACAAUUUGUUUAUUACAAUUUUUCUUUUUUUAGGUGUGGAUUAAUGCAAAAUUAGGCUUCUUUU [vg1.1 probe]	no binding
GGGAGAACAAUUUUUCUUUUUUUAGGUGUGGAUUAAUGCAAAAUUAGGCUUCUUUUUAGAUGCAGAGAAUGUGCAUGUAGAUGCUGUUAAAGUAACUUUUUAUAAU [vg1.2 probe]	no binding
